Legend:
[1] = biological target: human type I5E receptor protein (human) (UniProt Q8NFJ6); test: cell-based or functional assay; details: scale: times lower level than human type Bv8 peptide
[2] = test system: guinea pig ileum; test: Experiment on contraction using specimen removed from guinea pig ileum; details: for EC50: guinea pig ileum specimen, contraction induced by 1 μM acetylcholine taken as 100%, accumulative administration, read-out: EC50 of contraction response calculated from the dose-response curve
Protocol: Guinea pigs (std: Hartley, 7-8 weeks old, male, weighing about 450 g) weres bled to death by cutting the carotid artery and laparotomized to remove the ileum. The ileum was placed on a glass Petri dish charged with Tyrode solution (composition: 138 mM NaCl, 2.7 mM KCl, 1.8 mM CaCl2, 0.5 mM MgCl2, 1.1 mM NaH2PO4, 11.9 mM NaHCO3 and 5.6 mM glucose), which was bubbled with 95% O2-5% CO2 gas. After connective tissues or fat pieces adhered to the ileum were removed with scissors for surgery and tweezers, the ileum was cut into a size of about 1.5 cm long, which was used as specimen. The specimen was suspended in an organ bath (20 ml) filled with the Tyrode solution maintained at 37° C. and a load of 0.5 g was applied over 30 minutes or longer to stabilize the specimen. Contraction response of the ileum specimen was measured using AMPLIFIER CASE 7747 of NEC Sanei. After determination of the maximum contraction by administration of 1 μM acetylcholine, purified human type Bv8 peptide obtained by the method of REFERENCE EXAMPLE 1 with a modification or snake venom MIT1 was accumulatively administered to assay the contraction response. For dilution of human type Bv8 and MIT1, physiological saline containing 0.05% bovine serum albumin was employed.
The contraction response induced by human type Bv8 and MIT1 was shown by percentage, taking the contraction induced by 1 μM acetylcholine as 100%.

[3] = test system: PI-3 kinase; details: cited from earlier work
[4] = biological target: T1, ZAQ receptor (Homo sapiens, UniProt Q8TCW9); test: Assay for the ZAQ receptor activating activity (intracellular Ca ion level increasing activity using FLIPR); assay type: cell-based
T1 construct: expressed in transfected cells; host or cells: CHO/dhfr- cells, clone ZAQC-B1 (plasmid pAK-ZAQC)
T1 sequence (Q8TCW9 whole entry): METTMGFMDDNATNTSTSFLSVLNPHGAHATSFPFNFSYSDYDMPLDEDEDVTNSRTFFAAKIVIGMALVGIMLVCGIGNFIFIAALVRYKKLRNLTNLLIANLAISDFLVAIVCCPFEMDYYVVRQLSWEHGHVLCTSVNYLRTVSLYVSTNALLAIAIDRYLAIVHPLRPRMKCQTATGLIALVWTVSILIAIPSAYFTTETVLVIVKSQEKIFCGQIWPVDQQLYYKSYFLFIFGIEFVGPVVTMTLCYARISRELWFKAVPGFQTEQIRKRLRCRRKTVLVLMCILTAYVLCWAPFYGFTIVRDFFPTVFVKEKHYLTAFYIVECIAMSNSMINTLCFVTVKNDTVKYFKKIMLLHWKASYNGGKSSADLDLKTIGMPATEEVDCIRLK
Protocol: The ZAQC-B1 obtained in (2-1) above and the 15E-4 cells obtained in (2-2) above were suspended in a medium (10% d FBS-DMEM), respectively, in 15×10^4 cells/ml and an aliquot of 200 μl was inoculated on a 96-well plate for FLIPR (Black plate clear bottom, Coster, Inc.) using a dispenser (3.0×10^4 cells/200 μl/well). After culturing overnight in a 5% CO2 incubator at 37° C., it was provided for use (hereinafter which was made a cell plate). Twenty milliliters of H/HBSS (9.8 g of Nissui Hanks 2 (Nissui Seiyaku Co., Ltd.), 0.35 g of sodium hydrogencarbonate and 4.77 g of HEPES; the pH was adjusted to 7.4 with 6 M sodium hydroxide solution followed by filter sterilization), 200 μl of 250 mM Probenecid and 200 μl of fetal bovine serum (FBS) were mixed. Also, 2 vials (50 μg) of Fluo 3-AM (Dojin Kagaku Kenkyusho) were dissolved in 40 μl of dimethylsulfoxide and 40 μl of 20% Pluronic acid (Molecular Probes Co., Ltd.). The solution was added to H/HBSS-Probenecid-FBS described above. After thoroughly mixing them, an aliquot of 100 μl was added to the medium-removed cell plate using an 8-channel pipette, followed by incubation in a 5% CO2 incubator at 37° C. for an hour (dye loading). […] By assaying a change in fluorescence intensity with passage of time, the intracellular Ca ion level increasing activity was measured. […]

[5] = test system: MAP kinase; details: cited from earlier work
[6] = biological target: T2, I5E receptor (Homo sapiens, UniProt Q8NFJ6); test: Assay for the I5E receptor activating activity (intracellular Ca ion level increasing activity using FLIPR); assay type: cell-based; details: I5E receptor expression CHO cells
T2 construct: expressed in transfected cells; host or cells: CHO/dhfr- cells, clone No. 4 (I5E-4 cells), vector pAKKO1.11
T2 sequence (Q8NFJ6 whole entry): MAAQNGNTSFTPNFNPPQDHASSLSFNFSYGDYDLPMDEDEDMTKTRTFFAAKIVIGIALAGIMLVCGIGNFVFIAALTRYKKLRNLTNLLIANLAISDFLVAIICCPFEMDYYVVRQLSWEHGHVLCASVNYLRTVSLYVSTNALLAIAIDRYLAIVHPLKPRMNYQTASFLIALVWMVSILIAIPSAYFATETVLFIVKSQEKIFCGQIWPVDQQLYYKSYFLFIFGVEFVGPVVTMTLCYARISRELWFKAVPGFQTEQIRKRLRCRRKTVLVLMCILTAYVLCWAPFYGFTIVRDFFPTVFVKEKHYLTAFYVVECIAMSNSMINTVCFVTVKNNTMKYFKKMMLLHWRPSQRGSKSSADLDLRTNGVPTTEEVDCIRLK
Description: Human I5E receptor cDNA (SEQ ID NO: 6) was cloned by PCR publicly known and incorporated into pAKKO1.11 expression vector. The expression vector was transfected to CHO/dhfr^− cells (American Type Culture Collection) by the method described in (2-1). About 20 colonies of the transfected CHO cells, which grew in 8 to 10 days after the initiation of culture, were selected. The selected cells were inoculated on a 96-well plate in 3×10^4 cells/well, and the reactivity on snake venom MIT1 (SEQ ID NO: 21) was examined by the test method described in (2-3) described hereinafter. No. 4 clone of the 15E-expressing CHO cells showing a good reactivity was selected (hereinafter abbreviated as 15E-4 cells).
The ZAQC-B1 obtained in (2-1) above and the 15E-4 cells obtained in (2-2) above were suspended in a medium (10% d FBS-DMEM), respectively, in 15×10^4 cells/ml and an aliquot of 200 μl was inoculated on a 96-well plate for FLIPR (Black plate clear bottom, Coster, Inc.) using a dispenser (3.0×10^4 cells/200 μl/well). After culturing overnight in a 5% CO2 incubator at 37° C., it was provided for use (hereinafter which was made a cell plate). […] By assaying a change in fluorescence intensity with passage of time, the intracellular Ca ion level increasing activity was measured. […]

[7] = test system: ileum, distal colon, proximal colon; details: cited from earlier work

Sequence of human type I5E receptor protein (human) (Q8NFJ6 whole entry): as above

For “snake venom Mamba Intestinal Toxin 1 (from UniProt P25687 1-80) (ligand)”, the I5E receptor activating activity (intracellular calcium level, FLIPR) [1] was 10.

B1: human type Bv8: Human type Bv8 mature peptide (81 amino acid residues, SEQ ID NO: 19) produced in Escherichia coli, … EXAMPLE 1 (protein)
chain: AVITGACDKDSQCGGGMCCAVSIWVKSIRICTPMGKLGDSCHPLTRKVPFFGRRMHHTCPCLPGLACLRTSFNRFICLAQ
In the case of B1, the “intestinal tract contractile activity” value ([2]; as described in EXAMPLES) is listed as “has an intestinal tract contractile activity”, the EC50 [2] is listed as 0.57 nM and the PI-3 kinase activation [3] is listed as “activates”. The “intracellular Ca ion level increasing activity using FLIPR, compared with CHO cell-derived recombinant preparation” value ([4]; method of EXAMPLE 2 (2-3), receptor cell line not specified) was “equivalent to that of the CHO cell-derived recombinant preparation” and the MAP kinase activation [5] was “activates”.

B2: human type Bv8 peptide: Human type Bv8 purified from CHO cell culture supernatant (EXAMPLE 3); C-terminal Lys-deficient mature peptide, SEQ ID NO: 22 (protein)
chain: B1 chain
modifications: Human
With B2 the “I5E receptor activating activity (intracellular calcium level)” value ([6]; FLIPR, FIG. 10) was “induced the intracellular calcium level concentration-dependently” and the “ZAQ receptor activating activity (intracellular calcium level)” value ([4]; ZAQ receptor expression CHO cells, FLIPR, FIG. 9) was “induced the intracellular calcium level concentration-dependently”.

B3: MIT1 (protein)
chain: AVITGACERDLQCGKGTCCAVSLWIKSVRVCTPVGTSGEDCHPASHKIPFSGQRMHHTCPCAPNLACVQTSPKKFKCLSK
For B3, the EC50 [2] is given as 0.4 nM, the degree of contraction/relaxation ([7]; compared with potassium chloride) is given as “as potent as comparable to 40 mM potassium chloride” and the “contraction or relaxation of intestinal tract” value ([7]; ileum, distal colon, proximal colon) is given as “induced contraction in the ileum or distal colon, or relaxation in the proximal colon”. For the same molecule, the “level from which I5E receptor activating activity is exhibited, lower than that of human type Bv8 peptide” value ([6]; relative to human type Bv8 peptide) was “about 10 times”.

Source: patent US20040048314A1, “Novel physiologically active peptide and use thereof” (priority 2001, published 2004)
